The nature of the data set: label from the status in PepcDB records.
Turning to “MFGLVDAVSFYARAEKVFDPSIRHKPVVVLTNNDGCICAVCPIARQLGVPKFVPYFKVKSFLAKHGVVVRSSNYELYADLSERMMNVIARYSDNHYVYSIDESFLHFKNFSCVDNWHEYGHVIRKAVWRETRLPVGVGFGATLTLAKAANHASKKLSGFDGVAVIDDKASRKEILSRMSLTEVWGIGSKLGKRLSILGLKNGWDLANQSPKAMRGQFGVVVERTVNELNGMPCLQWDEIGQDKQEIFSTRSFGQRVTDGHALKAALSSHASIVGAKVRRQGSLIKRLVIFASSSPHDDSYYKKSVIYEFPIATDNILKLVGAISYVFDNIYRQGVSFYRCGVGGVELENSQFQQQDMFSLSVNNPPLMKCYDQINHRYGRGAVEVAIAEKNEKWAMRRNFLSPRSTSNWSEIPKINCLEHHHHHH”, the protein production entry is given as “failed”.
In the case of “MKILILGGTRFLGRAFVDEALQRGHEVTLFNRGTNKEVFPEVEQLIGDRNNDVSSLKNRKWDVVIDTCGFSPHHIRNVGEVLNDNIEHYVFISSLSVYKDWILHDIKEDYILQPEPTDDQIKAVENGEVSPYEYYGALKVLCEKEAEKYWPGRVLHVRAGLLSGMFDYTDRLPYWIQRVAKGGKVLVPGRKDRPVQIVDIKDVANWGLNMAENKNAGTFNVTGPNYDLTMEELLNTCKKVMNSDAEFVWVEESFMNEHNVQPWTEMPLWLPEIFSLEGETKPWKGGFTISIENAVKEGLTFRRIEETVTDVYEWMKSTDEWELKAGISGEREKELLERWYQ” it was “failed”.
As for “MKIGFLGFGKSNRSLLKYLLNHQEAKFFVSEAKTLDGETKKFLEEHSVEYEEGGHTEKLLDCDVVYVSPGIKPDTSMIELLSSRGVKLSTELQFFLDNVDPKKVVGITGTDGKSTATALMYHVLSGRGFKTFLGGNFGTPAVEALEGEYDYYVLEMSSFQLFWSERPYLSNFLVLNISEDHLDWHSSFKEYVDSKLKPAFLQTEGDLFVYNKHIERLRNLEGVRSRKIPFWTDENFATEKELIVRGKKYTLPGNYPYQMRENILAVSVLYMEMFNELESFLELLRDFKPLPHRMEYLGQIDGRHFYNDSKATSTHAVLGALSNFDKVVLIMCGIGKKENYSLFVEKASPKLKHLIMFGEISKELAPFVGKIPHSIVENMEEAFEKAMEVSEKGDVILLSPGGASFDMYENYAKRGEHFREIFKRHGGDEV”, the protein production entry is on record as “failed”.
In the case of “MRDLDREETYLVDRTGLALELRDLVGTGPVPGEAYPGPHAALGYGEGQFAALLSGLPDWGEEGTLFLLEGGYDLGEAAGMALLAETGRARVVRVGFRPGVEVHIPPSPLAPYRYLRFLLLATGREEVLRSVDEALLEERRRLGPEVPVEENPAKFLAYTLLERLPLFYSPLFRPLEGAVQTLFARVAKSLSLTPPPSALEFFLVGLEARHEQGDPLAAVLLGPGEEAALAKEILESRVDALAEVPATGANRLAQVMALWYRMAWTAYYLALLYGVDPGDHGLLERLREVT” it was “not failed”; in that of “MNILSRIFARTPSLRTRVVVATAIGAAIPVLIVGTVVWVGITNDRKERLDRRLDEAAGFAIPFVPRGLDEIPRSPNDQDALITVRRGNVIKSNSDITLPKLQDDYADTYVRGVRYRVRTVEIPGPEPTSVAVGATYDATVAETNNLHRRVLLICTFAIGAAAVFAWLLAAFAVRPFKQLAEQTRSIDAGDEAPRVEVHGASEAIEIAEAMRGMLQRIWNEQNRTKEALASARDFAAVSSHELRTPLTAMRTNLEVLSTLDLPDDQRKEVLNDVIRTQSRIEATLSALERLAQGELSTSDDHVPVDITDLLDRAAHDAARIYPDLDVSLVPSPTCIIVGLPAGLRLAVDNAIANAVKHGGATLVQLSAVSSRAGVEIAIDDNGSGVPEGERQVVFERFSRGSTASHSGSGLGLALVAQQAQLHGGTASLENSPLGGARLVLRLPGPS”, “not failed”.
Under “MRVSCVYATASRWGGPPVASEVRGDAAISTTPDAAPGLAARRRRILFVAEAVTLAHVVRPFALAQSLDPSRYEVHFACDPRYNQLLGPLPFRHHAIHTIPSERFFGNLTQGRFYAMRTLRKYVEADLRVLDEIAPDLVVGDLRISLSVSARLAGIPYIAIANAYWSPYAQRRFPLPDVIWTRLFGVRLVKLLYRLERPLLFALQCMPLNWVRRRHGLSSLGWNLCRIFTDGDHTLYADVPELMPTYDLPANHEYLGPVLWSPAGKPPTWWDSLPTDRPIVYATLGTSGGRNLLQLVLNALAELPVTVIAATAGRSDLKTVPANAFVADYLPGEAAAARSAVVVCNGGSLTTQQALVAGVPVIGVAGNLDQHLNMEAVERAGAGVLLRTERLKSQRVAGAVMQVISRSEYRQAAARLADAFGRDRVGFPQHVENALRLMPENRPRTWLAS” stands “failed”; under “MTIAQEPTALNFECETGNYHTFCPISCVAWLYQKIEDSFFLVIGTKTCGYFLQNAMGVMIFAEPRYAMAELEEGDISAQLNDYAELKRLCEQIKRDRNPSVIVWIGTCTTEIIKMDLEGLAPKLEGEIGIPIVVARANGLDYAFTQGEDTVLAAMAHRCPDKAPVAEAEKNLEHHHHHH”, “not failed”.
For the sequence “MPSPRLQHSKPPRRLSRAQKHSSGSSNTSTANRRAHLRLCLERLKVLIPLGPDCTRHTTLGLLNKAKAHIKKLEEAERKSQHQLENLEREQRFLKWRLEQLQGPQEMERIRMDSIGSTISSDRSDSEREEIEVDVESTEFSHGEVDNISTTSISDIDDHSSLPSIGSDEGYSSASVKLSFTS”, the protein production result is “failed”.
Under “MMKLKKVLVLGGTRFFGKHLVEALLKDGHDVTIATRGITEDSFGSRVKRLIVDREDEKQLAERLEDKSYDIVYDNLCYSSNAATIICEVLRGKTRKYVMTSSMAVYDPAINLSEEDFNPYEYTIAYGGRNDFNYGEGKRVAEAVVFQQATFPVVAVRFPVVIGENDYTKRLQFYVEHIVREEPVAVNHLDGELSFIHEEEAGGFLAWCGMEDIEGPINACSNGVVSSREIIHFIEENTGIKPLVQEVGDHVAPYNEVTNCTLHNGKANELGFPFRELKIEIEKVLRYYIHATK” stands “failed”; under “VKRKGVEVIIALDISNSMLAQDVQPSRLEKAKRLISRLVDELDNDKVGMIVFAGDAFTQLPITSDYISAKMFLESISPSLISKQGTAIGEAINLATRSFTPQEGVGRAIIVITDGENHEGGAVEAAKAAAEKGIQVSVLGVGMPEGAPIPVEGTNDYRRDREGNVIVTRLNEGMCQEIAKDGKGIYVRVDNSNSAQKAISQEISKMAKSDVE”, “not failed”.
In the case of “MADPKELQDKFWKALKSDRTVMLGLDGVEDGHARPMTAQIEGDSGGPIWFFTSKDNALIAMLGQGRRVIGAFSSKGHDLFASISGSLREDTDPAVVDRLWNPYVAAWYEGGKDDPKLALLRLDADHAQIWLNGSSLLAGIKVLLGV” it was “not failed”; in that of “MAKPGFRLALFATLLALIVVLLGAYTRLTHAGLGCPDWPGCYGFISVPKGEAQLAHAELHFPDTPVEAHKGWNEMIHRYFAGTLGLLIVLLAARAWTHRRHPGQPLKLPLFLLAVVFAQAAFGMWTVTLKLWPQVVTAHLLGGFATLSLLFLLTLRLSGVLPALIVPRRLQYWATAGLVLVIGQIALGGWVSSNYAAVACIDLPTCHGQWWPNMDFANGFHLTQHIGPNYLGGQLDSDARTAIHMTHRVGAVLVTLVLLGLAWQLRQTGMTRLAGLVLVALGAQVSLGLSNVFFHLPLPVAVAHNAGGAALLLTLVLVNYHARTSLVRARDRLPLGWRLSPRKQMAGPITIKGEMPWRL”, “failed”; in that of “MEDEIKSFAKDRKLIIEDSKNSKNNIVEVQKAIETLKDEKNAKNVVVDFTEYNPLHNGHKYCMDFGKREGLFISVIPGPLERSGRGIPYLVNRYIRSEMALLAGADLVVEGPPMGIMGSGQYMQCLIKIFSALNGDIIPRGYIEEETMEKVINSINNKNHIKIKPYNISCIETGEKFGEKLEIDNYVIASMSYTIYKLKENFPEWKPKFKFIERIEGISGTKIREGVFNNNFESIKHMLPETTLNVFKSFENNLSEIILKRNEQMVLDTVNNFDLSKYLPENISEKLNEKEYYKSIEEIKECIPRGFSKNNIERTISKLEARIEKETISKYIENYPANLKILKGINNNE”, “failed”.
Under “MKSQISWKVGGQQGEGIESTGEIFATAMNRKGYFLYGYRHFSSRIKGGHTNNKIRVSKSPVHAISDDLDILIAFDQETIELNHHEMREDSIIIADSKAKPQKPENCVAQLIELPFTSTAKELGTALMKNMVAIGATSALMDLNTSTFETLIDNMFSKKGNKVVDMNIQALNMGYDLMKQQVTNVNGDFTLENGSGHPHLYMIGNDAIGLGAIAAGSRFMSAYPITPASEIMEYMIANLPKVDGTVVQTEDEIAAATMAIGANYAGVRGFTASAGPGLSLMMESIGLSGMTETPLVIINTQRGGPSTGLPTKQEQSDLMQMIYGTHGDIPKIVVAPTDAEDAFYLTMEAFNLAEEYQCPVILLSDLQLSLGKQTVKTLDYNKIDIRRGEIIQSDIERAEDDKAYFKRYALTASGVSPRPIPGVKGGIHHVTGVEHNEEGKPSEAPMNRQNQMEKRMRKTESLVINNPVLLNEHEDEADILYIGFISTKGAIGEGAERLERHGVKVNTMHIRQLHPFPKDIVQQAINKASKVIVAEHNYQGQLSSILKMNTQVNDKLVNQTKYDGKPFLPYEIEEKGLEIAKELKELV” stands “failed”; under “RDEVAGILRLGLSQSFGTMHIIPAIDKLRNQYPDLQVEVRLFDHQADMLKDGLDLWVTNFEDLPEGYVAQRLADSNFVLAASPDYLIDKKVPHHPLDLVEHNCLTYQ”, “failed”; under “MEKAVHSSTTSGPAVPGETTKTGTSIIDTAASAVQSFAPVNQIHQHLCAFHFYADDMARQVEAHHFCSHVNEEMRQCLIYDGPDANARLIGLEYIVSEKLFMTLPDEEKKLWHSHEWEVKGGFLFMPGVPGAIQRKDLDKVAKTYGKVFHFWQVDLGHELPIGLPNVMMAVTRDGQLFHEMIQEAEKRFGVSVEGERDSRAYMSGPELGIHPLANGGGKGMKLELREVDIKPVESVGSVFV”, “failed”.
Consider “MMISDLPEDMVEEILSRVSIISLGALRWNDLSKARVICKAEARQQFAGFMIKGSKEVSNTRLVVWNPYLGKIWSIQHRSAYHSENRYTLGYDNNRKPQNLEEQLAVLLHNWGAFAMEIWVTTNIEPNAKKHAVIFDSSLSCGSVACIIGETGNLRTVDLGVAAVPYRQLPVCSYAPSLEQINQGQELPLIGLTQIFMEQHKYWVSTFLDNLITKYG”, for which the protein production entry is on record as “failed”.
“MADHSIQGKVALIAGGAKNLGGLIARDLAAHGARAIAIHYNSPASKADADATVAALQAAGAQAVALQGDLTTAAAVEKLYADALAAVGRPDIAINTVGKVLKKPFSEISEAEYDEMAAVNAKSAFFFLKEAGRHVNDHGKIVTLVTSLLGAFTPFYSAYAGTKAPVEHYTRAAAKEFGARGISVTAVGPGPMDTPFFYGQESPEAVAYHQSAAALSPHSPTGLTHIEDVVPFIRHLVSDGWWITGQTLLINGGYTTK”: the protein production result is “not failed”.
In the case of “MATESSESEEEGKISGGNYKLIIDDDLREMGKNAAWSVSSYGLQPHLINIQFQKKVKLQLVVLYVDFKLDESYTPSKISIRAGDGFHNLKEIKSVELVKPTGWVCLSLSGTDPRETFCQESR” it was “failed”; in that of “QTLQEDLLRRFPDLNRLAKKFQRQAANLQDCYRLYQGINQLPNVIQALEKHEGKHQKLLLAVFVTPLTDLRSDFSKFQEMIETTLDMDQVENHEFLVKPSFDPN”, “failed”; in that of “MRKYEIMYIIRPGVEEEAQKALVERFAGVLTNNGAEIINTKEWGKRRLAYEINDLREGFYMILNVNANAEAINEFDRLAKINEDILRHIVVKEEEK”, “not failed”.
Under “MWMPPRPEEVARKLRRLGFVERMAKGGHRLYTHPDGRIVVVPFHSGELPKGTFKRILRDAGLTEEEFHNL” stands “not failed”.

These data come from a protein production outcome set (Wang et al. 2014).
